Test results from patent US20210221875A1 (Chugai, published 2021).

T1: soluble human IL-6R (human, UniProt P08887 20-357)
T1 construct: also called hsIL-6R; recombinant human IL6R
T1 sequence: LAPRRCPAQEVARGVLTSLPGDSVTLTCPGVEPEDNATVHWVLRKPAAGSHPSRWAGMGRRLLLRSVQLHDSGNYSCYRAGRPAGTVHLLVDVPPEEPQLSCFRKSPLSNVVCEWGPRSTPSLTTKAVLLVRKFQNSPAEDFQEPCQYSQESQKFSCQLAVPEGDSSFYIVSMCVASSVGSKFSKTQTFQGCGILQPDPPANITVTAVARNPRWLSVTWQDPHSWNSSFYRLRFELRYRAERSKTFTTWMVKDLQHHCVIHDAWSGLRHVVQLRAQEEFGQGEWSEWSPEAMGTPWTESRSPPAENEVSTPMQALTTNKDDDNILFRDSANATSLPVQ


Each binder was assayed against T1, soluble human IL-6R (assay: BLI (Octet), in the same way as in Example 3).

| Binder | binding result |
| --- | --- |
| 20A11-G1m/VK1-39-k0MT (antibody, human IgG1, kappa, V domains shown, IgG antibody-like molecule: anti-IL6R VHH 20A11 fused with human IgG1 CH1-hinge-CH2-CH3) VH: EVQLVESGGGLVQPGGSLRLSCAASGSVFKINVMAWYRQAPGKGRELVAGIISGGSTSYADSVKGRFTISRDNAKNTLYLQMNSLRPEDTAVYYCAFITTESDYDLGRRYWGQGTLVTVSS VL: DIQMTQSPSSLSASVGDRVTITCRASQSISSYLNWYQQKPGKAPKLLIYAASSLQSGVPSRFSGSGSGTDFTLTISSLQPEDFATYYCLQFDSYPLTFGGGTKVEIKR | binds |
| 20A11-G1m/VK2-28-k0MT (antibody, human IgG1, kappa, V domains shown, IgG antibody-like molecule with VHH 20A11 in place of VH) VH: EVQLVESGGGLVQPGGSLRLSCAASGSVFKINVMAWYRQAPGKGRELVAGIISGGSTSYADSVKGRFTISRDNAKNTLYLQMNSLRPEDTAVYYCAFITTESDYDLGRRYWGQGTLVTVSS VL: not shown | binds |
| 20A11-G1m/VL3-21-lamL (antibody, human IgG1, lambda, V domains shown, IgG antibody-like molecule with VHH 20A11 in place of VH) VH: EVQLVESGGGLVQPGGSLRLSCAASGSVFKINVMAWYRQAPGKGRELVAGIISGGSTSYADSVKGRFTISRDNAKNTLYLQMNSLRPEDTAVYYCAFITTESDYDLGRRYWGQGTLVTVSS VL: SYVLTQPPSVSVAPGKTARITCGGNNIGSKSVHWYQQKPGQAPVLVIYYDSDRPSGIPERFSGSNSGNTATLTISRVEAGDEADYYCQAWDSSTDVVFGGGTKLTVLG | binds |
| 20A11-G1m/VL1-40-lamL (antibody, human IgG1, lambda, V domains shown, IgG antibody-like molecule with VHH 20A11 in place of VH) VH: EVQLVESGGGLVQPGGSLRLSCAASGSVFKINVMAWYRQAPGKGRELVAGIISGGSTSYADSVKGRFTISRDNAKNTLYLQMNSLRPEDTAVYYCAFITTESDYDLGRRYWGQGTLVTVSS VL: QSVLTQPPSVSGAPGQRVTISCTGSSSNIGAGYDVHWYQQLPGTAPKLLIYGNSNRPSGVPDRFSGSKSGTSASLAITGLQAEDEADYYCQSYDNSLNAVVFGGGTKLTVLG | binds |
| 20A11-G1m/VL2-14-lamL (antibody, human IgG1, lambda, V domains shown, IgG antibody-like molecule with VHH 20A11 in place of VH) VH: EVQLVESGGGLVQPGGSLRLSCAASGSVFKINVMAWYRQAPGKGRELVAGIISGGSTSYADSVKGRFTISRDNAKNTLYLQMNSLRPEDTAVYYCAFITTESDYDLGRRYWGQGTLVTVSS VL: QSALTQPASVSGSPGQSITISCTGTSSDVGGYNYVSWYQQHPGKAPKLMIYEVSNRPSGVSNRFSGSKSGNTASLTISGLQAEDEADYYCSSYRSGYTLVVFGGGTKLTVLG | binds |
| 20A11-G1m/VL1-44-lamL (antibody, human IgG1, lambda, V domains shown, IgG antibody-like molecule with VHH 20A11 in place of VH) VH: EVQLVESGGGLVQPGGSLRLSCAASGSVFKINVMAWYRQAPGKGRELVAGIISGGSTSYADSVKGRFTISRDNAKNTLYLQMNSLRPEDTAVYYCAFITTESDYDLGRRYWGQGTLVTVSS VL: not shown | binds |

Each binder was assayed against T1, soluble human IL-6R (assay: BLI (Octet), in the same way as in Example 3, 30 C or 25 C).

| Binder | binding result |
| --- | --- |
| 20A11hu-G1m/VK2-28-k0MT (antibody, human IgG1, kappa, V domains shown, IgG antibody-like molecule with VHH 20A11hu in place of VH) VH: EVQLVESGGGLVQPGGSLRLSCAASGSVFKINVMAWVRQAPGKGLEWVAGIISGGSTSYADSVKGRFTISRDNAKNTLYLQMNSLRPEDTAVYYCAFITTESDYDLGRRYWGQGTLVTVSS VL: not shown | no binding |
| 20A11hu-G1m/VK1-39-k0MT (antibody, human IgG1, kappa, V domains shown, IgG antibody-like molecule) VH: EVQLVESGGGLVQPGGSLRLSCAASGSVFKINVMAWVRQAPGKGLEWVAGIISGGSTSYADSVKGRFTISRDNAKNTLYLQMNSLRPEDTAVYYCAFITTESDYDLGRRYWGQGTLVTVSS VL: DIQMTQSPSSLSASVGDRVTITCRASQSISSYLNWYQQKPGKAPKLLIYAASSLQSGVPSRFSGSGSGTDFTLTISSLQPEDFATYYCLQFDSYPLTFGGGTKVEIKR | no binding |
| 20A11hu-G1m/VL1-40-lamL (antibody, human IgG1, lambda, V domains shown, IgG antibody-like molecule with VHH 20A11hu in place of VH) VH: EVQLVESGGGLVQPGGSLRLSCAASGSVFKINVMAWVRQAPGKGLEWVAGIISGGSTSYADSVKGRFTISRDNAKNTLYLQMNSLRPEDTAVYYCAFITTESDYDLGRRYWGQGTLVTVSS VL: QSVLTQPPSVSGAPGQRVTISCTGSSSNIGAGYDVHWYQQLPGTAPKLLIYGNSNRPSGVPDRFSGSKSGTSASLAITGLQAEDEADYYCQSYDNSLNAVVFGGGTKLTVLG | no binding |

Each binder was assayed against T2, biotin-rabbit aggrecan G1-IGD-G2-3xFlag (rabbit, UniProt Q28670 17-683, biotin on the N-terminal Avi-tag (BirA co-expression)) (assay: SPR (Biacore T200), 37 C, pH 7.4, antibody captured, Avi RbG1G2 3Flag as analyte, 1:1 model;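 also: antibodies captured at roughly 200 RU on a CM4 or C1 chip through anti-human IgG Fc or Protein A/G, in sodium phosphate NaCl buffer with Tween 20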).
T2 construct: three tandem Flag-tags at the C-terminus and Avi-tag at the N-terminus; also called biotinylated Avi-rabbit aggrecan G1-IGD-G2-3xFLAG; Avi RbG1G2 3FLAG
Method: Anti-Human IgG (Fc) antibody was immobilized onto all flow cells of a CM4 sensor chip using Human antibody capture kit (GE Healthcare). Protein A/G was immobilized onto all flow cells of a CM4 or C1 sensor chip using amine coupling kit (GE Healthcare). Antibodies and analytes were prepared in buffer (50 mM Sodium Phosphate, 150 mM NaCl, 0.02% Tween 20, 0.005% NaN3, pH 7.4 or 20 mM Sodium Phosphate, 150 mM NaCl, 0.05% Tween20, 0.005% NaN₃, pH 7.4). Each antibody was captured onto the sensor surface by Anti-Human IgG (Fc) antibody or Protein A/G. Antibody capture levels were aimed at 200 resonance unit (RU). […] Sensor surface was regenerated each cycle with 3 M MgCl₂ or 10 mM Glycine-HCl, pH 1.5.

| Binder | Kd | koff | kon |
| --- | --- | --- | --- |
| GRA0124Hc1075-SG1/GRA0124Lc0952-SK2 (antibody, human IgG1, kappa, V domains shown, full length antibody) VH: QSVEESGGDLVTPGTPLTLTCTVDGVDLSNYAIHWVRQAPGKGLEWIGMIRSNGMRYYGTWAKGRFTTSKTSSTTVDLKMTSPTTEDTATYFCARLWNIWGPGTLVTVSS VL: AQVLDQTPSSTSVAVGGTVTINCQSSPSVYLNLLAWYQQKPGQPPKLLIYSASFLQSDVPDRFSGSGDGDQFDLDIDGVQCADAATYYCAGVYSNNIYTFGGGTKVEIKR | 3.68 nM | 0.000267 s⁻¹ | 72700 M⁻¹ s⁻¹ |
| GRA0124Hc0626-SG1286/GRA0124Lc0544-SK2025 (antibody, human IgG1, kappa) heavy: not shown light: AQVLTQTPSSTSVAVGGTVTINCQSSPSVYLNLLAWYQQKPGQPPKLLIYSASFLQSGVPPRFSGSGSGTQFTLTISGVQCADAATYYCAGVYSNNIYTFGGGTKVEIKRTVAAPSVFIFPPSDEQLKSGTASVVCLLNNFYPREAEVQWKVDNALQSGNSQESVTEQDSEDCTYSLSSTLTLSKADYEKHKVYACEVTHQGLSSPVTKSFNRGEC | 15.2 nM | 0.000786 s⁻¹ | 51900 M⁻¹ s⁻¹ |
| GRA0124Hc0626-SG1/GRA0124Lc0694-SK2 (antibody, human IgG1, kappa, V domains shown, full length antibody) VH: QSVEESGGRLVTPGTPLTLTCTVSGVDLSNYAIHWVRQAPGKGLEWIGMIRSNGMRYYGTWAKGRFTTSKTSSTTVDLKMTSPTTEDTATYFCARLWNIWGPGTLVTVSS VL: AQVLTQTPSSTSVAVGGTVTINCQSSPSVYLNLLAWYQQKPGQPPKLLIYSASALQSGVPPRFSGSGSGTQFTLTISGVQCADAATYYCAGVYSNNIYTFGGGTKVEIKR | 77.5 nM | 0.00202 s⁻¹ | 26100 M⁻¹ s⁻¹ |
| GRA0124Hc0626-SG1/GRA0124Lc0951-SK2 (antibody, human IgG1, kappa, V domains shown, full length antibody) VH: QSVEESGGRLVTPGTPLTLTCTVSGVDLSNYAIHWVRQAPGKGLEWIGMIRSNGMRYYGTWAKGRFTTSKTSSTTVDLKMTSPTTEDTATYFCARLWNIWGPGTLVTVSS VL: AQVLTQTPSSTSVAVGGTVTINCQSSPSVYLNLLAWYQQKPGQPPKLLIYSASFLQSDVPDRFSGSGDGDQFDLDIDGVQCADAATYYCAGVYSNNIYTFGGGTKVEIKR | 4.04 nM | 0.000321 s⁻¹ | 79400 M⁻¹ s⁻¹ |
| GRA0124Hc0626-SG1286/GRA0124Lc0544-SK2027 (antibody, human IgG1, kappa, full length antibody) heavy: not shown light: AQVLTQTPSSTSVAVGGTVTINCQSSPSVYLNLLAWYQQKPGQPPKLLIYSASFLQSGVPPRFSGSGSGTQFTLTISGVQCADAATYYCAGVYSNNIYTFGGGTKVEIKETVAAPSVFIFPPSDEQLKSGTASVVCLLNNFYPREAEVQWKVDNALQSGNSQESVTEQDSEDCTYSLSSTLTLSKADYEKHKVYACEVTHQGLSSPVTKSFNRGEC | 15.1 nM | 0.00078 s⁻¹ | 51700 M⁻¹ s⁻¹ |

Now from value to binder:

| Kd | koff | kon | Binder |
| --- | --- | --- | --- |
| 256 nM | 0.0147 s⁻¹ | 57600 M⁻¹ s⁻¹ | GRA1013Hhz-SG1/GRA1013Lqz-SK2 (antibody, human IgG1, kappa, full length antibody) heavy: not shown light: DILMTQTPLSLPVSLGDQASISCRSSQSIVHSNGNTYLEWYLQKPGQSPKLLIYKVSNRFSGVPDRFSGSGSGTDFTLKISRVEAEDLGVYYCFQGSHLPLTFGAGTKLELKRTVAAPSVFIFPPSDEQLKSGTASVVCLLNNFYPREAKVQWKVDNALQSGNSQESVTEQDSKDCTYSLSSTLTLSKADYEKHKVYACEVTHQGLSSPVTKSFNRGEC |
| 13.4 nM | 0.000718 s⁻¹ | 53500 M⁻¹ s⁻¹ | GRA0124Hc0626-SG1/GRA0124Lc0544-SK2021 (antibody, human IgG1, kappa, the row with this full length name is used) heavy: not shown light: AQVLTQTPSSTSVAVGGTVTINCQSSPSVYLNLLAWYQQKPGQPPKLLIYSASFLQSGVPPRFSGSGSGTQFTLTISGVQCADAATYYCAGVYSNNIYTFGGGTKVEIKETVAAPSVFIFPPSDEQLKSGTASVVCLLNNFYPREAEVQWKVDNALQSGNSQESVTEQDSKDCTYSLSSTLTLSKADYEKHKVYACEVTHQGLSSPVTKSFNRGEC |
| 14.4 nM | 0.000757 s⁻¹ | 52700 M⁻¹ s⁻¹ | GRA0124Hc0626-SG1265/GRA0124Lc0544-SK2021 (antibody, human IgG1, kappa, the L chain name is printed with both 563 and 564 (564 stands in the row of the Fab SG1265/SK2021)) heavy: not shown light: AQVLTQTPSSTSVAVGGTVTINCQSSPSVYLNLLAWYQQKPGQPPKLLIYSASFLQSGVPPRFSGSGSGTQFTLTISGVQCADAATYYCAGVYSNNIYTFGGGTKVEIKETVAAPSVFIFPPSDEQLKSGTASVVCLLNNFYPREAEVQWKVDNALQSGNSQESVTEQDSKDCTYSLSSTLTLSKADYEKHKVYACEVTHQGLSSPVTKSFNRGEC |
| 15.9 nM | 0.000837 s⁻¹ | 52700 M⁻¹ s⁻¹ | GRA0124Hc0626-SG1265/GRA0124Lc0544-SK2 (antibody, human IgG1, kappa, full length antibody) heavy: not shown light: AQVLTQTPSSTSVAVGGTVTINCQSSPSVYLNLLAWYQQKPGQPPKLLIYSASFLQSGVPPRFSGSGSGTQFTLTISGVQCADAATYYCAGVYSNNIYTFGGGTKVEIKRTVAAPSVFIFPPSDEQLKSGTASVVCLLNNFYPREAKVQWKVDNALQSGNSQESVTEQDSKDCTYSLSSTLTLSKADYEKHKVYACEVTHQGLSSPVTKSFNRGEC |
| 17 nM | 0.000883 s⁻¹ | 51900 M⁻¹ s⁻¹ | GRA0124Hc0626-SG1286/GRA0124Lc0544-SK2 (antibody, human IgG1, kappa) heavy: not shown light: AQVLTQTPSSTSVAVGGTVTINCQSSPSVYLNLLAWYQQKPGQPPKLLIYSASFLQSGVPPRFSGSGSGTQFTLTISGVQCADAATYYCAGVYSNNIYTFGGGTKVEIKRTVAAPSVFIFPPSDEQLKSGTASVVCLLNNFYPREAKVQWKVDNALQSGNSQESVTEQDSKDCTYSLSSTLTLSKADYEKHKVYACEVTHQGLSSPVTKSFNRGEC |
| 3.28 nM | 0.000455 s⁻¹ | 139000 M⁻¹ s⁻¹ | GRA0105Hg-SG1/GRA0105Lg-SK2 (antibody, human IgG1, kappa, full length antibody) heavy: not shown light: AQVLTQTPSPVSAAVGGTVTINCQASQSVYNKNNLAWYQQKPGQPPKLLIYDASKLASGVPSRFKGGGSGTHFTLTISGVQCDDAATYYCQGTYYSSGWYNTFGGGTKVEIKRTVAAPSVFIFPPSDEQLKSGTASVVCLLNNFYPREAKVQWKVDNALQSGNSQESVTEQDSKDCTYSLSSTLTLSKADYEKHKVYACEVTHQGLSSPVTKSFNRGEC |
